The results in this text go back to patent US20080166293A1.

For orientation: Kd means the equilibrium constant for the complex coming apart. Read a low Kd as a tighter complex.

The target in the assay is human transferrin receptor (hTfR) (human) (UniProt P02786). The assay can be described thus: Scatchard analysis, 125I-labelled protein (tyrosine of the peptide iodinated) on CEF+hTfR cells on ice.
Sequence of human transferrin receptor (hTfR) (human) (P02786 whole entry): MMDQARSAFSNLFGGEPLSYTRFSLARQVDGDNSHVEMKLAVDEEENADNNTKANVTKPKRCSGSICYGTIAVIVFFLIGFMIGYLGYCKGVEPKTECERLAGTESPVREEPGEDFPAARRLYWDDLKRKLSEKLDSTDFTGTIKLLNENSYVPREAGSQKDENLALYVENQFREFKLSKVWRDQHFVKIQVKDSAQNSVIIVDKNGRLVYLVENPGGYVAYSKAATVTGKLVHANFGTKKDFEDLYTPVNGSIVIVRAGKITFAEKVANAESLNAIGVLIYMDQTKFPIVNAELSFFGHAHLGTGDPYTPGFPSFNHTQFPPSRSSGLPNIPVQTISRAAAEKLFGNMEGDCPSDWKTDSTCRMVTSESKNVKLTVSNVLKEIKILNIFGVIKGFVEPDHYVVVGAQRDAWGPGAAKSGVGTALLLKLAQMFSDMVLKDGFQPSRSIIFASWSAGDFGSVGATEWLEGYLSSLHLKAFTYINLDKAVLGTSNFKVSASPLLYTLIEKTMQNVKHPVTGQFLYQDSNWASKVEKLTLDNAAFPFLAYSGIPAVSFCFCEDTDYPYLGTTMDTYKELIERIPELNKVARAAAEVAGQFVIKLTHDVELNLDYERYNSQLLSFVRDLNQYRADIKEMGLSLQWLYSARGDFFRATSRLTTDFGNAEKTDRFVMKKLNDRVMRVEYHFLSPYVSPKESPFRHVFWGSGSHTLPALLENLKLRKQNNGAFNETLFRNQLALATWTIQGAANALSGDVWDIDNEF

Turning to GFP-HAIYPRH (Seq. ID No. 1), the Kd was 360 µM.
